From PMC10952495, “Glycosylation increases active site rigidity leading to improved enzyme stability and turnover” (The Febs Journal, 2023) come the findings set out here.

Substrate in the data set: Nc1ccccc1N
Description: purified protein. The format is biochemical, Armoracia rusticana. As to conditions: 25.0 °C.

The mark [1] stands for this setting: holo enzyme 0.5 nM, 3% v/v H2O2, 50 mM Tris pH 8.0, 298 K.
Setting [2] is: holo enzyme 10 nM, 3% v/v H2O2, 20 mM Bis-Tris pH 7.0, 298 K.

B1: pHRP (plant horseradish peroxidase, glycosylated) (Armoracia rusticana) (protein)
chain: QLTPTFYDNSCPNVSNIVRDTIVNELRSDPRIAASILRLHFHDCFVNGCDASILLDNTTSFRTEKDAFGNANSARGFPVIDRMKAAVESACPRTVSCADLLTIAAQQSVTLAGGPSWRVPLGRRDSLQAFLDLANANLPAPFFTLPQLKDSFRNVGLNRSSDLVALSGGHTFGKNQCRFIMDRLYNFSNTGLPDPTLNTTYLQTLRGLCPLNGNLSALVDFDLRTPTIFDNKYYVNLEEQKGLIQSDQELFSSPNATDTIPLVRSFANSTQTFFNAFVEAMDRMGNITPLTGTQGQIRLNCRVVNSNS
notes: native from horseradish root, 8 N-linked glycans, clinical diagnostic grade (Ortho Clinical Diagnostics), with and without C-terminal serine, monomer
As to B1, under setting [1], the Km worked out at 920 ± 100 µM, the kcat was found to be 917 ± 53 s⁻¹ and the kcat/Km came out at 1e+06 M⁻¹ s⁻¹.

B2: rHRP (recombinant horseradish peroxidase, nonglycosylated) (Armoracia rusticana) (protein)
chain: QLTPTFYDNSCPNVSNIVRDTIVNELRSDPRIAASILRLHFHDCFVNGCDASILLDNTTSFRTEKDAFGNANSARGFPVIDRMKAAVESACPRTVSCADLLTIAAQQSVTLAGGPSWRVPLGRRDSLQAFLDLANANLPAPFFTLPQLKDSFRNVGLNRSSDLVALSGGHTFGKNQCRFIMDRLYNFSNTGLPDPTLNTTYLQTLRGLCPLNGNLSALVDFDLRTPTIFDNKYYVNLEEQKGLIQSDQELFSSPNATDTIPLVRSFANSTQTFFNAFVEAMDRMGNITPLTGTQGQIRLNCRVVNSNS
Regarding B2, under setting [2], the Km is 980 ± 130 µM, the kcat was determined as 86.2 ± 4.7 s⁻¹ and the kcat/Km came out at 88200 M⁻¹ s⁻¹.

As a reminder, the Km is the substrate concentration at which the rate is half of its maximum. As a reminder, the kcat is the maximal rate divided by the concentration of active sites. One may read the kcat/Km as the second-order rate constant that governs catalysis at low substrate concentration.
